Experimental data published in patent US20260125454A1 (SHANGHAI JUNSHI BIOSCIENCES, published 2026).
Positions count from the first letter of the chain named.

T1: Biotin-huCGRPaSA (human, not fully specified; biotin (position not given))
T1 construct: exact construct ('aSA') not explained; also called Biotin CGRPaSA; full-length (1-37) CGRP
T1 peptide: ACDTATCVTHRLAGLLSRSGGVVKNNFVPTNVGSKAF

B1: hu128 (antibody, V domains shown)
VH: QVQLVQSGAEVKKPGASVKVSCKASGYTFTDYNMHWVRQAPGQGLEWMGNIYPYNGGTVYNQKFNNRVTLTVDTSSSTAYMELRSLRSDDTAVYYCAREGLGGYWGQGTLVTVSS
VL: DIVLTQSPDSLAVSLGERATINCKASQNIDYDGYTYLNWYQQKPGQPPKVLIYSIFNLESGVPDRFSGSGSGTDFTLTISSLQAEDVAVYYCQQSNEVPYTFGQGTKLEIK
notes: 2B8 HC1-2/3E5 LC-1
B2: hu129 (antibody, V domains shown)
VH: B1 VH
VL: B1 VL with D32G, T35S, L37M, I55V, V98A
notes: 2B8 HC1-2/3H10 LC2-1
B3: hu154 (antibody, V domains shown)
VH: B1 VH with A24T, G44R, N50Y, Y52S, V59A, N65K, N66F, R84S, D89E
VL: B1 VL
notes: 3E5 HC-1/3E5 LC-1
B4: hu167 (antibody, V domains shown)
VH: B1 VH with G44R, N50Y, Y52S, V59A, N65K, N66F, R84S, D89E
VL: B1 VL
notes: 3E5 HC-2/3E5 LC-1
B5: hu193 (antibody, V domains shown)
VH: B1 VH with A24T, G44R, N50Y, Y52S, G56A, V59A, N65K, N66F, R84S, D89E
VL: B1 VL
notes: 3E5 HC-4/3E5 LC-1
B6: hu71 (antibody, V domains shown)
VH: QVQLVQSGSELKKPGASVKVSCKASGYTFTDFNMHWVRQAPGQGLEWMGYIYPYNGDVVYNQNFTNRFVLSVDSSSSTAYLQISSLKAEDTAVYYCAREGLGGYWGQGTLVTVSS
VL: EIVLTQSPATLSLSPGERATLSCKASQNIDFDGYAYMNWYQHKPGQAPRVLIYSVFNLESGIPARFSGSGSGTDFTLTISSLEPEDFAVYYCQQSHEVPYTFGQGTKLEIK
notes: 1F5 HC-4/1F5 LC1-2
B7: hu90 (antibody, V domains shown)
VH: QVQLVQSGAEVKKPGASVKVSCKASGYTFIDFNMHWVRQAPGQRLEWMGYIYPYNADVVYNQDFTNRVTLTVDTSSSTAYMELSSLRSEDTAVYYCAREGLGGYWGQGTLVTVSS
VL: B1 VL with D32G, T35S, L37M, I55V, V98A
notes: 1F5 HC-5/3H10 LC2-1
B8: hu87 (antibody, V domains shown)
VH: B7 VH
VL: DIVLTQSPDSLAVSLGERATINCQASQNIDGNTYMNWYQQKPGQPPKVLIYSIFNLESGVPDRFSGSGSGTDFTLTISSLQAEDVAVYYCQQSNDYPYTFGQGTKLEIK
notes: 1F5 HC-5/2B8 LC2-1
B9: hu100 (antibody, V domains shown)
VH: B1 VH with G44R, N50Y, I51V, T58S, V59A, N65K, N66S, R84S, D89E
VL: B8 VL
notes: 2A2 HC-1/2B8 LC2-1
B10: hu131 (antibody, V domains shown)
VH: B1 VH with G56A, R84S, S85R
VL: DIVLTQSPASLAVSPGQRATITCKASQNIDYDGYAYLNWYQQKPGQPPKVLIYSVFNLESGVPARFSGSGSGTDFTLTINPVEANDTANYYCQQSNEFPYTFGQGTKLEIK
notes: 2B8 HC1-3/1A2 LC2-1
B11: hu145 (antibody, V domains shown)
VH: B1 VH with A24T, G44R, N50Y, Y52S, V59A, N65K, N66F, R84S, D89E
VL: B10 VL with N85D
notes: 3E5 HC-1/1A2 LC2-2

What follows are binders tested against CGRP antigen (assay: cell-based or functional assay).

Binder | IC50 [µg/mL] | relative activity (%) vs Ref(TEVA) [%]
B1 | 0.109 | 28
B2 | 0.088 | 39
B3 | 0.0905 | 36
B4 | 0.125 | 26
B5 | 0.0775 | 42
B6 | 0.0404 | 77
B7 | 0.058 | 53
B8 | 0.124 | 38
B9 | 0.11 | 28
B10 | 0.0425 | 80
B11 | 0.0978 | 35

Target: T1, Biotin-huCGRPaSA
Assay: ELISA, supernatant; relative to chimeric C245
Summary of the method: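 Antibodies, including reference chimeric C245, titrated 2.5-fold from 1000 ng/mL and incubated 60 min at 37°C on wells coated with 1.0 μg/mL biotin-CGRPaSA and blocked with 2% BSA. Bound IgG detected with HRP anti-human Fc antibody and TMB, acid-stopped, absorbance 450/620 nm.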

Binder | Relative binding activity, % [%]
B1 | 117
B2 | 117
B3 | 121
B4 | 101
B5 | 100
B6 | 120
B7 | 102
B8 | 138
B9 | 133
B10 | 107
B11 | 119
